According to the supplement of paper PMC10126150:
± gives the standard deviation of the averaged measurements.

System: ATP
Assay: switch fluorescence ratio, 500 uM ATP over buffer (Cy3 cluster intensity, sum of 5 cycles each) (fold (ratio)); higher = stronger signal-on switching upon ATP binding; sequences stand for … in TCGTCGGCAGCGTCAGATGTGTATAAGAGACAGTTTTTTTTTTTTTTTTTTTTTTTTT…TC
Conditions: aptamer strand: ATP DNA aptamer (quencher-CACCTGGGGGAGTATTGCGGAGGAAGG + anchor), 100 nM annealed; ATP concentration: 500 uM
Method in brief: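 For every switch-domain sequence, the fluorescence ratio is the mean of per-cluster values, each being summed target-cycle Cy3 intensity over summed buffer-cycle Cy3 intensity. Clusters outside 100-1000 RFU were excluded. On a modified Illumina MiSeq flow-cell, the Cy3-labelled switching-strand clusters were annealed to 100 nM quencher-labelled ATP aptamer, imaged in selection buffer and then after 15 min with 500 uM ATP at 22 °C. Five such cycles were run, with NaOH stripping and re-annealing between them.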
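Note: ATP exposure 15 min at 22 °C before imaging.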

TCGTGGTGGG
switch fluorescence ratio: 0.994 ± 0.012

TCGTGTCGG
switch fluorescence ratio: 0.98 ± 0.021

TCGTGTGGGT
switch fluorescence ratio: 1.01 ± 0.023

TCGTGTGGTT
switch fluorescence ratio: 0.978 ± 0.035

TCGTGTTTGT
switch fluorescence ratio: 1.02 ± 0.011

TCGTTAATGA
switch fluorescence ratio: 1.02 ± 0.02

TCGTTATTCG
switch fluorescence ratio: 0.979 ± 0.021

TCGTTATTGG
switch fluorescence ratio: 0.9844 ± 0.0023

TCGTTCATGG
switch fluorescence ratio: 0.979 ± 0.039

TCGTTCGGCT
switch fluorescence ratio: 1.01 ± 0.044

TCGTTCGGGG
switch fluorescence ratio: 1.041 ± 0.0049

TCGTTCGTCG
switch fluorescence ratio: 1.04 ± 0.06

TCGTTCTGGG
switch fluorescence ratio: 0.996 ± 0.023

TCGTTGAGCA
switch fluorescence ratio: 0.994 ± 0.018

TCGTTGCAGG
switch fluorescence ratio: 1.05 ± 0.092

TCGTTGCTAG
switch fluorescence ratio: 0.982 ± 0.059

TCGTTGGCTT
switch fluorescence ratio: 1 ± 0.011

TCGTTTATCA
switch fluorescence ratio: 0.9771 ± 0.0073

TCGTTTCGGG
switch fluorescence ratio: 0.985 ± 0.017

TCGTTTGTAT
switch fluorescence ratio: 0.972 ± 0.005

TCGTTTTATT
switch fluorescence ratio: 0.9925 ± 0.0076

TCGTTTTCCC
switch fluorescence ratio: 1.08 ± 0.14

TCGTTTTGAC
switch fluorescence ratio: 1.02 ± 0.023

TCGTTTTGAG
switch fluorescence ratio: 0.971 ± 0.039

TCGTTTTGCA
switch fluorescence ratio: 0.991 ± 0.013

TCGTTTTGGG
switch fluorescence ratio: 0.9988 ± 0.0056

TCTAAAGATT
switch fluorescence ratio: 1.011 ± 0.0027

TCTAACATGC
switch fluorescence ratio: 1.15 ± 0.12

TCTAACTTAG
switch fluorescence ratio: 1.043 ± 0.0025

TCTAAGACGT
switch fluorescence ratio: 0.957 ± 0.018

TCTAAGAGTC
switch fluorescence ratio: 0.975 ± 0.039

TCTAAGCTGG
switch fluorescence ratio: 0.988 ± 0.014

TCTAAGGCCC
switch fluorescence ratio: 0.986 ± 0.011

TCTAATTAGT
switch fluorescence ratio: 0.993 ± 0.013

TCTAATTGTT
switch fluorescence ratio: 0.9991 ± 0.0053

TCTACAGTCG
switch fluorescence ratio: 1.02 ± 0.023

TCTACGGCGT
switch fluorescence ratio: 0.9991 ± 0.0059

TCTACGGTGC
switch fluorescence ratio: 1.5 ± 0.24

TCTACTGGGT
switch fluorescence ratio: 0.993 ± 0.033

TCTAGAAGCG
switch fluorescence ratio: 1.0039 ± 0.00082

TCTAGCACGG
switch fluorescence ratio: 1.06 ± 0.023

TCTAGGAGGG
switch fluorescence ratio: 0.998 ± 0.016

TCTAGGCCTC
switch fluorescence ratio: 1.019 ± 0.0038

TCTAGGTAGA
switch fluorescence ratio: 0.993 ± 0.026

TCTAGTAAAT
switch fluorescence ratio: 1.01 ± 0.015

TCTATCAGTG
switch fluorescence ratio: 1.02 ± 0.018

TCTATCTTTA
switch fluorescence ratio: 0.996 ± 0.019

TCTATGACAA
switch fluorescence ratio: 1.01 ± 0.039

TCTATGAGGC
switch fluorescence ratio: 0.988 ± 0.024

TCTATGGGGT
switch fluorescence ratio: 1 ± 0.019

TCTATTAAGG
switch fluorescence ratio: 1 ± 0.013

TCTATTACGC
switch fluorescence ratio: 1 ± 0.047

TCTATTCCCT
switch fluorescence ratio: 1.02 ± 0.027

TCTCACTGCC
switch fluorescence ratio: 1.08 ± 0.028

TCTCAGAGTA
switch fluorescence ratio: 1 ± 0.012

TCTCAGGGGT
switch fluorescence ratio: 1.07 ± 0.094

TCTCATAGGT
switch fluorescence ratio: 1.04 ± 0.038

TCTCATTCAG
switch fluorescence ratio: 1.06 ± 0.14

TCTCGGAAAA
switch fluorescence ratio: 0.996 ± 0.021

TCTCGTCAGC
switch fluorescence ratio: 1.087 ± 0.0041

TCTCGTGGGA
switch fluorescence ratio: 1.01 ± 0.03

TCTCGTTTT
switch fluorescence ratio: 0.979 ± 0.025

TCTCTGTCGA
switch fluorescence ratio: 1.4 ± 0.11

TCTCTTAAGT
switch fluorescence ratio: 0.989 ± 0.012

TCTCTTTTTA
switch fluorescence ratio: 1.02 ± 0.023

TCTGAAGATT
switch fluorescence ratio: 0.999 ± 0.016

TCTGAAGGTG
switch fluorescence ratio: 1.28 ± 0.22

TCTGATTTGT
switch fluorescence ratio: 1.01 ± 0.013

TCTGCCATTT
switch fluorescence ratio: 1.44 ± 0.63

TCTGCCTTTT
switch fluorescence ratio: 1.05 ± 0.074

TCTGGAGCCG
switch fluorescence ratio: 1.04 ± 0.022

TCTGGAGGGG
switch fluorescence ratio: 1.022 ± 0.0073

TCTGGCGCCG
switch fluorescence ratio: 1.03 ± 0.017

TCTGGGAGAA
switch fluorescence ratio: 0.992 ± 0.042

TCTGGGGAAT
switch fluorescence ratio: 1 ± 0.035

TCTGGGGGAG
switch fluorescence ratio: 0.977 ± 0.029

TCTGGGGTTA
switch fluorescence ratio: 1 ± 0.018

TCTGGGTGCC
switch fluorescence ratio: 1.02 ± 0.055

TCTGGTACAG
switch fluorescence ratio: 0.969 ± 0.02

TCTGGTCCGG
switch fluorescence ratio: 0.997 ± 0.015

TCTGGTGTGG
switch fluorescence ratio: 0.994 ± 0.053

TCTGGTTGAG
switch fluorescence ratio: 1.02 ± 0.019

TCTGTAAATT
switch fluorescence ratio: 0.991 ± 0.03

TCTGTAGGTT
switch fluorescence ratio: 1.03 ± 0.024

TCTGTATTCG
switch fluorescence ratio: 1.005 ± 0.0033

TCTGTATTTG
switch fluorescence ratio: 0.981 ± 0.028

TCTGTGTAGC
switch fluorescence ratio: 1 ± 0.027

TCTGTTAATT
switch fluorescence ratio: 1.01 ± 0.014

TCTTACAATT
switch fluorescence ratio: 0.971 ± 0.036

TCTTAGATGA
switch fluorescence ratio: 0.9765 ± 0.003

TCTTATATTT
switch fluorescence ratio: 0.9977 ± 0.0021

TCTTATGGAA
switch fluorescence ratio: 1.04 ± 0.047

TCTTATTTGG
switch fluorescence ratio: 1.01 ± 0.05

TCTTCTAA
switch fluorescence ratio: 0.9972 ± 0.0047

TCTTGAACGT
switch fluorescence ratio: 0.978 ± 0.018

TCTTGATTAT
switch fluorescence ratio: 0.9795 ± 0.0085

TCTTGGAGCT
switch fluorescence ratio: 1.01 ± 0.019

TCTTGGCGCC
switch fluorescence ratio: 0.97579 ± 0.00051

TCTTGGGGG
switch fluorescence ratio: 1.05 ± 0.012

TCTTGGGGGA
switch fluorescence ratio: 0.996 ± 0.031

TCTTGGTCGT
switch fluorescence ratio: 0.9677 ± 0.0051

TCTTGTAATC
switch fluorescence ratio: 1.07 ± 0.055

TCTTGTATTC
switch fluorescence ratio: 0.9938 ± 0.0094

TCTTTACCGA
switch fluorescence ratio: 1.02 ± 0.036

TCTTTACGGT
switch fluorescence ratio: 1.04 ± 0.045

TCTTTACTAC
switch fluorescence ratio: 1.08 ± 0.081

TCTTTATAAA
switch fluorescence ratio: 1.02 ± 0.038

TCTTTCCTTC
switch fluorescence ratio: 1.04 ± 0.12

TCTTTCTTTT
switch fluorescence ratio: 1.03 ± 0.027

TCTTTGCAGC
switch fluorescence ratio: 1.025 ± 0.0041

TCTTTGCCGT
switch fluorescence ratio: 0.982 ± 0.021

TCTTTGGTTT
switch fluorescence ratio: 1.17 ± 0.25

TCTTTTAGGC
switch fluorescence ratio: 1 ± 0.036

TCTTTTCGTT
switch fluorescence ratio: 1 ± 0.011

TCTTTTGGAT
switch fluorescence ratio: 0.994 ± 0.019

TCTTTTTCCT
switch fluorescence ratio: 1.045 ± 0.0054

TCTTTTTCTT
switch fluorescence ratio: 1.01 ± 0.033

TCTTTTTGCA
switch fluorescence ratio: 1.03 ± 0.014

TCTTTTTGGC
switch fluorescence ratio: 1.01 ± 0.034

TGAAAAAAAG
switch fluorescence ratio: 0.973 ± 0.04

TGAAAAACAC
switch fluorescence ratio: 1.12 ± 0.17

TGAAAATACC
switch fluorescence ratio: 1.011 ± 0.01

TGAAAATGCG
switch fluorescence ratio: 1.01 ± 0.057

TGAAAATTAG
switch fluorescence ratio: 0.9688 ± 0.0049

TGAAAATTCA
switch fluorescence ratio: 1.05 ± 0.077

TGAAAATTCC
switch fluorescence ratio: 1.12 ± 0.073

TGAAACAGGT
switch fluorescence ratio: 1.001 ± 0.0032

TGAAACGGAA
switch fluorescence ratio: 1.15 ± 0.079

TGAAAGTGCT
switch fluorescence ratio: 0.973 ± 0.02

TGAAATAGGG
switch fluorescence ratio: 1.0312 ± 0.00097

TGAAATATCA
switch fluorescence ratio: 1.0208 ± 0.00019

TGAAATCCGA
switch fluorescence ratio: 1 ± 0.027

TGAAATTTAA
switch fluorescence ratio: 1 ± 0.0065

TGAAATTTAG
switch fluorescence ratio: 1.01 ± 0.047

TGAAATTTG
switch fluorescence ratio: 1.01 ± 0.03

TGAACAAGAT
switch fluorescence ratio: 1.01 ± 0.022

TGAACAGGGG
switch fluorescence ratio: 0.9869 ± 0.0078

TGAACGAGGG
switch fluorescence ratio: 1.01 ± 0.022

TGAACGGATC
switch fluorescence ratio: 1.03 ± 0.008

TGAACGTCCA
switch fluorescence ratio: 1.09 ± 0.015

TGAACGTTTT
switch fluorescence ratio: 1.04 ± 0.029

TGAACTAGTA
switch fluorescence ratio: 0.9828 ± 0.0046

TGAAGATGGG
switch fluorescence ratio: 1 ± 0.019

TGAAGATTTA
switch fluorescence ratio: 1.03 ± 0.017

TGAAGCAGGG
switch fluorescence ratio: 1.13 ± 0.018

TGAAGCATTT
switch fluorescence ratio: 1.17 ± 0.14

TGAAGGAGTG
switch fluorescence ratio: 0.955 ± 0.038

TGAAGGATTT
switch fluorescence ratio: 1.01 ± 0.034

TGAAGGGGCC
switch fluorescence ratio: 2.74 ± 2.5

TGAAGGGGGA
switch fluorescence ratio: 0.995 ± 0.041

TGAAGTGAAT
switch fluorescence ratio: 1.01 ± 0.011

TGAAGTTGG
switch fluorescence ratio: 1.01 ± 0.019

TGAATAATCT
switch fluorescence ratio: 1.055 ± 0.004

TGAATAGGGC
switch fluorescence ratio: 0.9882 ± 0.0097

TGAATATTAA
switch fluorescence ratio: 0.985 ± 0.025

TGAATGAATA
switch fluorescence ratio: 1.027 ± 0.0085

TGAATGAATT
switch fluorescence ratio: 0.997 ± 0.022
